Test results as given in IntAct's records for PubMed 35512704.

B1: Speckle-type POZ protein (Homo sapiens), O43791 (parent)
chain: MSRVPSPPPPAEMSSGPVAESWCYTQIKVVKFSYMWTINNFSFCREEMGEVIKSSTFSSGANDKLKWCLRVNPKGLDEESKDYLSLYLLLVSCPKSEVRAKFKFSILNAKGEETKAMESQRAYRFVQGKDWGFKKFIRRDFLLDEANGLLPDDKLTLFCEVSVVQDSVNISGQNTMNMVKVPECRLADELGGLWENSRFTDCCLCVAGQEFQAHKAILAARSPVFSAMFEHEMEESKKNRVEINDVEPEVFKEMMCFIYTGKAPNLDKMADDLLAAADKYALERLKVMCEDALCSNLSVENAAEILILADLHSADQLKTQAVDFINYHASDVLETSGWKSMVVSHPHLVAEAYRSLASAQCPFLGPPRKRLKQS

Variants of: B1
Details: with brd4_human BRD4, O60885

effect of a mutation on the interaction | Variant
disrupting interaction strength | F102C

Variants of: B1
Details: with ncoa3_human NCOA3, Q9Y6Q9
Chain of ncoa3_human NCOA3, Q9Y6Q9 (Q9Y6Q9 whole entry, looked up): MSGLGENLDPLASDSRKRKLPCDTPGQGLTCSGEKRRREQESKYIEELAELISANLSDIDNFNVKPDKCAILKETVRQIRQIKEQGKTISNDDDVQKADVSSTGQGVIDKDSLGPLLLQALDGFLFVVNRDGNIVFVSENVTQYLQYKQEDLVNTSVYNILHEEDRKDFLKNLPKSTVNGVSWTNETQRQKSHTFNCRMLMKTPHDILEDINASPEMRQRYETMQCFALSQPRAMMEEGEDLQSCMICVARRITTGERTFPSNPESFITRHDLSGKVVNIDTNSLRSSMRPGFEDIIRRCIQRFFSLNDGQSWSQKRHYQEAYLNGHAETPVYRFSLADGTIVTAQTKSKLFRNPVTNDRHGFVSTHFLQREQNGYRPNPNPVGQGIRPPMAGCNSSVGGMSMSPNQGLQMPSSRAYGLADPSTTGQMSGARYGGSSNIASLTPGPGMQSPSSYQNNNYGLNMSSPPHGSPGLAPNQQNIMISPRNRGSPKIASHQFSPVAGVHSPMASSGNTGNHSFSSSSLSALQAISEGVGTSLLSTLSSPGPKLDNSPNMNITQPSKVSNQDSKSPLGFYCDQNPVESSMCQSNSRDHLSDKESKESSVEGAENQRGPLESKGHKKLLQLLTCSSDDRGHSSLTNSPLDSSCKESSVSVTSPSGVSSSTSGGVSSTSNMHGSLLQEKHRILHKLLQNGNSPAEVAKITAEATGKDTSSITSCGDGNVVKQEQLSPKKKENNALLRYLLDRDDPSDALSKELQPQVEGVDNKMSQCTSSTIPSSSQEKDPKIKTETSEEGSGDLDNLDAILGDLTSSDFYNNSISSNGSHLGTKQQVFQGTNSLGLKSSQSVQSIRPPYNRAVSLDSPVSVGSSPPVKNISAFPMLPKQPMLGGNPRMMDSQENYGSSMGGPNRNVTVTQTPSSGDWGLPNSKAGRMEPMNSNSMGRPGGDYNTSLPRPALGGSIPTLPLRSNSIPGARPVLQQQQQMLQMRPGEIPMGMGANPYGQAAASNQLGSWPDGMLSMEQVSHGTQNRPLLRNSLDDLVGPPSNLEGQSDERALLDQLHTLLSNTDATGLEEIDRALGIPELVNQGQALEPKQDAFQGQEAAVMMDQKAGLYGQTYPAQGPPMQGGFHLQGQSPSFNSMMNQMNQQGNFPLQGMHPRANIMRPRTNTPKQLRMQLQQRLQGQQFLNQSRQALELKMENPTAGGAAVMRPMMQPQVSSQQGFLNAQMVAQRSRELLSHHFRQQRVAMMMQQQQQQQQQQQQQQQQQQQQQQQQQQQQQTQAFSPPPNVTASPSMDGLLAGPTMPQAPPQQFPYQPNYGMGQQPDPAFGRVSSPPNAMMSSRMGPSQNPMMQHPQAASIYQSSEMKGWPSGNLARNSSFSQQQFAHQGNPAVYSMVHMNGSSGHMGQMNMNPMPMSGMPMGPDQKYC

effect of a mutation on the interaction | Variant
disrupting interaction strength | F102C

Variants of: B1
Details: with jun_human JUN

effect of a mutation on the interaction | Variant
disrupting interaction strength | F102C

Variants of: B1
Details: with akt1_human AKT1, P31749

effect of a mutation on the interaction | Variant
with no effect | F102C

Variants of: B1
Details: with alk_human ALK

effect of a mutation on the interaction | Variant
with no effect | F102C

Variants of: B1
Details: with aph1a_human APH1A

effect of a mutation on the interaction | Variant
with no effect | F102C

Variants of: B1
Details: with arnt_human ARNT

effect of a mutation on the interaction | Variant
with no effect | F102C

Variants of: B1
Details: with arc1a_human ARPC1A

effect of a mutation on the interaction | Variant
with no effect | F102C

Variants of: B1
Details: with bakor_human ATG14, Q6ZNE5

effect of a mutation on the interaction | Variant
with no effect | F102C

Variants of: B1
Details: with atm_human ATM

effect of a mutation on the interaction | Variant
with no effect | F102C

Variants of: B1
Details: with atpb_human ATP5F1B

effect of a mutation on the interaction | Variant
with no effect | F102C

Variants of: B1
Details: with aurkb_human AURKB

effect of a mutation on the interaction | Variant
with no effect | F102C

Variants of: B1
Details: with axin2_human AXIN2, Q9Y2T1

effect of a mutation on the interaction | Variant
with no effect | F102C

Variants of: B1
Details: with ufo_human AXL

effect of a mutation on the interaction | Variant
with no effect | F102C

Variants of: B1
Details: with za2g_human AZGP1, P25311

effect of a mutation on the interaction | Variant
with no effect | F102C

Variants of: B1
Details: with bap1_human BAP1, Q92560

effect of a mutation on the interaction | Variant
with no effect | F102C

Variants of: B1
Details: with bard1_human BARD1, Q99728

effect of a mutation on the interaction | Variant
with no effect | F102C

Variants of: B1
Details: with bcor_human BCOR

effect of a mutation on the interaction | Variant
with no effect | F102C

Variants of: B1
Details: with birc2_human BIRC2, Q13490

effect of a mutation on the interaction | Variant
with no effect | F102C

Variants of: B1
Details: with brd4_human BRD4, O60885
Remark: another data set of the same source

effect of a mutation on the interaction | Variant
with no effect | F102C

Variants of: B1
Details: with baba2_human BABAM2, Q9NXR7
Chain of baba2_human BABAM2, Q9NXR7 (Q9NXR7 whole entry): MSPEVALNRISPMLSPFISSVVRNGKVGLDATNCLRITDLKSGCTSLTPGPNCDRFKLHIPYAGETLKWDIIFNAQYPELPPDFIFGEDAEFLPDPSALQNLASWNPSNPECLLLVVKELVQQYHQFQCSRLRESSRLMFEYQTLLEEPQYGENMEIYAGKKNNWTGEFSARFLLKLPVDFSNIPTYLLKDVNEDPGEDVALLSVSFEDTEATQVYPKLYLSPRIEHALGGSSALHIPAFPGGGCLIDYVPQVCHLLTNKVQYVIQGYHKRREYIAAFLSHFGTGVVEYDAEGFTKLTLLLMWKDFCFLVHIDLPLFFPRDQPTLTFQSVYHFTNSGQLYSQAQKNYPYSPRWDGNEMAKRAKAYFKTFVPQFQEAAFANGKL

effect of a mutation on the interaction | Variant
with no effect | F102C

Variants of: B1
Details: with btg1_human BTG1, P62324
Chain of btg1_human BTG1, P62324 (P62324 whole entry): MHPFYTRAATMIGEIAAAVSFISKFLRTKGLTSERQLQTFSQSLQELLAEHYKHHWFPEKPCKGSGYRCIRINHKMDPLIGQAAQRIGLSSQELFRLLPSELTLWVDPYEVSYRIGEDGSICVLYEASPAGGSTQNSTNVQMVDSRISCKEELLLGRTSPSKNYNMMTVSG

effect of a mutation on the interaction | Variant
with no effect | F102C

Variants of: B1
Details: with btk_human BTK

effect of a mutation on the interaction | Variant
with no effect | F102C

Variants of: B1
Details: with ccnd1_human CCND1, P24385

effect of a mutation on the interaction | Variant
with no effect | F102C

Variants of: B1
Details: with ccnd2_human CCND2, P30279
Chain of ccnd2_human CCND2, P30279 (P30279 whole entry): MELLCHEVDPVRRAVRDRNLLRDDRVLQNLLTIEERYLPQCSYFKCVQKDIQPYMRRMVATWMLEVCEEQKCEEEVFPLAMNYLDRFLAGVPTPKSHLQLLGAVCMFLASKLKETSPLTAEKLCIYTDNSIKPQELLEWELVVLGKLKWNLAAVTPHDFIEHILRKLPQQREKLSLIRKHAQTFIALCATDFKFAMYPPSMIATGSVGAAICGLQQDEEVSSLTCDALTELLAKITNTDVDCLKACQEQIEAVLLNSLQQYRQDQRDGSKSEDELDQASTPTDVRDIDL

effect of a mutation on the interaction | Variant
with no effect | F102C

Variants of: B1
Details: with ccnd3_human CCND3, P30281
Chain of ccnd3_human CCND3, P30281 (P30281 whole entry): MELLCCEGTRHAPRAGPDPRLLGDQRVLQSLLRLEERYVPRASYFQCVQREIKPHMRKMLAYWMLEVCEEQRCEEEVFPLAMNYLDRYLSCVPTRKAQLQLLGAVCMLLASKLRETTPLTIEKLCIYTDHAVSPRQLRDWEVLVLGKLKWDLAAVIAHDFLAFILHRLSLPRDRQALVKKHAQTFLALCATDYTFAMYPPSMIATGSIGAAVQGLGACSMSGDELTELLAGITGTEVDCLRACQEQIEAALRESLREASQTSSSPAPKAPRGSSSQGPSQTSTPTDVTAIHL

effect of a mutation on the interaction | Variant
with no effect | F102C

Variants of: B1
Details: with cd44_human CD44, P16070

effect of a mutation on the interaction | Variant
with no effect | F102C

Variants of: B1
Details: with cd79b_human CD79B

effect of a mutation on the interaction | Variant
with no effect | F102C

Variants of: B1
Details: with cdc27_human CDC27, P30260

effect of a mutation on the interaction | Variant
with no effect | F102C

Variants of: B1
Details: with cdc73_human CDC73, Q6P1J9

effect of a mutation on the interaction | Variant
with no effect | F102C

Variants of: B1
Details: with cdk4_human CDK4, P11802

effect of a mutation on the interaction | Variant
with no effect | F102C

Variants of: B1
Details: with cdk6_human CDK6, Q00534
Chain of cdk6_human CDK6, Q00534 (Q00534 whole entry): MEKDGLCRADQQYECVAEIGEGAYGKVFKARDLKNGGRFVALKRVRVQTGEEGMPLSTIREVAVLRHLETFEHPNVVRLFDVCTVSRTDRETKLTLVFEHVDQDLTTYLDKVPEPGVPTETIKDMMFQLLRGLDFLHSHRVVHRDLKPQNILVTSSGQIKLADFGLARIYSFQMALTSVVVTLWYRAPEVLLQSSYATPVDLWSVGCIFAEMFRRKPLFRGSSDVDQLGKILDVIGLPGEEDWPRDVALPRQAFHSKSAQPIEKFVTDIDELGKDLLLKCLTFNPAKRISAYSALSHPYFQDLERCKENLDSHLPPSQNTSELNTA

effect of a mutation on the interaction | Variant
with no effect | F102C

Variants of: B1
Details: with cdn2c_human CDKN2C

effect of a mutation on the interaction | Variant
with no effect | F102C

Variants of: B1
Details: with chd1l_human CHD1L

effect of a mutation on the interaction | Variant
with no effect | F102C

Variants of: B1
Details: with chd2_human CHD2, O14647

effect of a mutation on the interaction | Variant
with no effect | F102C

Variants of: B1
Details: with ch3l1_human CHI3L1, P36222

effect of a mutation on the interaction | Variant
with no effect | F102C

Variants of: B1
Details: with ctla4_human CTLA4, P16410

effect of a mutation on the interaction | Variant
with no effect | F102C

Variants of: B1
Details: with cul3_human CUL3, Q13618

effect of a mutation on the interaction | Variant
with no effect | F102C

Variants of: B1
Details: with cul4b_human CUL4B

effect of a mutation on the interaction | Variant
with no effect | F102C

Variants of: B1
Details: with daxx_human DAXX

effect of a mutation on the interaction | Variant
with no effect | F102C

Variants of: B1
Details: with ddx5_human DDX5, P17844

effect of a mutation on the interaction | Variant
with no effect | F102C

Variants of: B1
Details: with dll3_human DLL3, Q9NYJ7

effect of a mutation on the interaction | Variant
with no effect | F102C

Variants of: B1
Details: with duox2_human DUOX2, Q9NRD8
Chain of duox2_human DUOX2, Q9NRD8 (Q9NRD8 whole entry): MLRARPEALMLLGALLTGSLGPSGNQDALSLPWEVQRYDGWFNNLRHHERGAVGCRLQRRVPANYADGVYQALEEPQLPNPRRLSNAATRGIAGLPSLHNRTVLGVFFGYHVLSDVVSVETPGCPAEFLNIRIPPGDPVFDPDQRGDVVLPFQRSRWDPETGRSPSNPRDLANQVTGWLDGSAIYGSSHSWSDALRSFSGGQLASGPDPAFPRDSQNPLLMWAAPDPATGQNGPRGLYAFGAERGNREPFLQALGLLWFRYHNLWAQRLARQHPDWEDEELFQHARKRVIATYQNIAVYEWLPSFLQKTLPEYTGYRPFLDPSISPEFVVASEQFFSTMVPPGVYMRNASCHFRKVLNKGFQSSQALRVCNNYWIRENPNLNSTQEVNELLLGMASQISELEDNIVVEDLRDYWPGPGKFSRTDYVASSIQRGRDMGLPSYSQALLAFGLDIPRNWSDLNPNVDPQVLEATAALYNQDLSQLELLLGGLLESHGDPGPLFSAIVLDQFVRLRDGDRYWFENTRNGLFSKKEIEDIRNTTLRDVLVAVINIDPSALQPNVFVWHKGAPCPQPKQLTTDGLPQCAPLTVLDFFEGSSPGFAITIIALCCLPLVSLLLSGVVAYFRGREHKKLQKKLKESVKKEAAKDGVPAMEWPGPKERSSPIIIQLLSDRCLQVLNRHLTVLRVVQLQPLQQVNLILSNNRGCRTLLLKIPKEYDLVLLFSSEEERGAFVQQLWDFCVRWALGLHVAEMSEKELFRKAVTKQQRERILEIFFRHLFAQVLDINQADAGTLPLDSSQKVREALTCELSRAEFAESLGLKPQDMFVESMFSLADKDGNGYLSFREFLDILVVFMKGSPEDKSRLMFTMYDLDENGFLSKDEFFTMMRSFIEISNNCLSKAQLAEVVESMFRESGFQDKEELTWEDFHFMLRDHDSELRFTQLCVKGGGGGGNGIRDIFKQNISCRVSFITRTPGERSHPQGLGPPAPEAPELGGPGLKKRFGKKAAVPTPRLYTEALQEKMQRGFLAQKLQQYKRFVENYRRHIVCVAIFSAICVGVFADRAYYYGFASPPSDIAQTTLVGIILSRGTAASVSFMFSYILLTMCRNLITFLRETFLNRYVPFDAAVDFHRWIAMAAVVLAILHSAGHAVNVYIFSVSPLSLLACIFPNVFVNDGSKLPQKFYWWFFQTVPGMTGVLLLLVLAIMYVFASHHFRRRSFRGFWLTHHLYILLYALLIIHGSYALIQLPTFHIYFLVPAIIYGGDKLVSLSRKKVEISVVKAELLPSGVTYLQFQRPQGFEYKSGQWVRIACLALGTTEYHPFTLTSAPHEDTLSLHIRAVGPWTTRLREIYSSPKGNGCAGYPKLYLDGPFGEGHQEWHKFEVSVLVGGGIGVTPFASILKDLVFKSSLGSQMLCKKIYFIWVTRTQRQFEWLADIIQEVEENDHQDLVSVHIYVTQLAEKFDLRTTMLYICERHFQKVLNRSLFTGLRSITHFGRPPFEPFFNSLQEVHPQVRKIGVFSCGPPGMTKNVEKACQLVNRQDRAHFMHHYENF

effect of a mutation on the interaction | Variant
with no effect | F102C

Variants of: B1
Details: with e2f2_human E2F2, Q14209

effect of a mutation on the interaction | Variant
with no effect | F102C

Variants of: B1
Details: with e2f3_human E2F3, O00716
Chain of e2f3_human E2F3, O00716 (O00716 whole entry): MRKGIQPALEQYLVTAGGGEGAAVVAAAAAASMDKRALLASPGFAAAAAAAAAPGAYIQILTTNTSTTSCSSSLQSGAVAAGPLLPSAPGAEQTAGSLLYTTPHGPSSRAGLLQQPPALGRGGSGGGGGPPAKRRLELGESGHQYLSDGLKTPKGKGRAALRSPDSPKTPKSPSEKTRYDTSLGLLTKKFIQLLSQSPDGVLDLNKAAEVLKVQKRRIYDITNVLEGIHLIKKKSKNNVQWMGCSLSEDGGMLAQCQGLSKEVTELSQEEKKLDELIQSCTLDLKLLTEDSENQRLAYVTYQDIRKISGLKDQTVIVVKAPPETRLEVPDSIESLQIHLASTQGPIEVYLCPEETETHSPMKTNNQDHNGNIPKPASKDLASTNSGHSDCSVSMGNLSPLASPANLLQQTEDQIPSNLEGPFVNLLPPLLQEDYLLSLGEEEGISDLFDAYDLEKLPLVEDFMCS

effect of a mutation on the interaction | Variant
with no effect | F102C
